Results on one molecule are retold here after patent US8753698B2, “Anti-hypertensive functional food products” (Globus Egg Sciences B.V., priority 2004, dated 2014).

For this assay, the target named is Angiotensin-I Converting Enzyme (ACE) (Homo sapiens, UniProt P12821). As to the kind of experiment: Determination of ACE inhibitory activity of hydrolysates in a microtiter plate (Hip-His-Leu substrate). The format is biochemical. The following applies: no digestion simulation, in %. On the procedure: ACE inhibitory activity can be measured in vitro using a spectrophotometry based assay. The assay is based on the liberation of hippuric acid from Hip-His-Leu substrate catalyzed by ACE.
Angiotensin-I Converting Enzyme (ACE), sequence (P12821 30-1306, species assumed): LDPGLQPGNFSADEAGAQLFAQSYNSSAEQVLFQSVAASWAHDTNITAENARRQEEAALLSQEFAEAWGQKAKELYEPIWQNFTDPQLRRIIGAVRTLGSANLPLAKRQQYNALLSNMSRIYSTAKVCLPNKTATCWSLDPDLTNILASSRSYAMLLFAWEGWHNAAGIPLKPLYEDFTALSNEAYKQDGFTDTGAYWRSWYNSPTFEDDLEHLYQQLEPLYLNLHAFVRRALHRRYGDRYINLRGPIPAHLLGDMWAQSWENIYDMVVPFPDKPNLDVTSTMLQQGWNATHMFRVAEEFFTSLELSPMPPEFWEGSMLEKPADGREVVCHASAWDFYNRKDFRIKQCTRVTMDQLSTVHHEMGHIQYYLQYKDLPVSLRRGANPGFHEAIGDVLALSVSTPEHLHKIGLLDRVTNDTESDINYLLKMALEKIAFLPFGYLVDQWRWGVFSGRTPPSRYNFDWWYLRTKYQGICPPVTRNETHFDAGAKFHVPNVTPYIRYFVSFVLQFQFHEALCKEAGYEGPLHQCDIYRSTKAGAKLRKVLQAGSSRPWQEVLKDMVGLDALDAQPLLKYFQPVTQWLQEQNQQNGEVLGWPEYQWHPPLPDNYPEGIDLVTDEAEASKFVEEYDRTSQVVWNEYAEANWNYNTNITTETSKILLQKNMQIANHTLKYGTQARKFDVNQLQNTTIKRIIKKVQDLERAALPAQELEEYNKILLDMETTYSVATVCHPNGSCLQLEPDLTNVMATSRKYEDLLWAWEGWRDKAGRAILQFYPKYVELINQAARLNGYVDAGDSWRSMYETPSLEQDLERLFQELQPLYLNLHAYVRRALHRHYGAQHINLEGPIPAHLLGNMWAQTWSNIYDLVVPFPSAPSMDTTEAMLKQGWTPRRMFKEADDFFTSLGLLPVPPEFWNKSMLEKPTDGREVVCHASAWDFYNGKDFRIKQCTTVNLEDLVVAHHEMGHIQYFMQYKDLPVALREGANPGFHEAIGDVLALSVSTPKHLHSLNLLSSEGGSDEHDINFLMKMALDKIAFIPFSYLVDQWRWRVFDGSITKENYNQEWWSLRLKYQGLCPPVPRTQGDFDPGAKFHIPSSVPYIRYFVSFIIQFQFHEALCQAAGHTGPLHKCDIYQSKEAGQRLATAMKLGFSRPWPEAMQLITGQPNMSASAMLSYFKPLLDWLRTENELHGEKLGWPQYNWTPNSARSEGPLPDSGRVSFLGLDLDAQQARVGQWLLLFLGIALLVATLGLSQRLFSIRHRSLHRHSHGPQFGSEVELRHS
Calculation of Ace Inhibition:
[formula] 2.4 Further (Optimized) Hydrolysis of Ovomucin with Alcalase Protocol for the DH Determination by TNBS Method Solutions: • 0.21 M Sodium phosphate buffer pH8.2 • 0.21 M NaH2PO4.H2O (25 ml solution) • 0.21 M Na2HPO4.2H2O (500 ml solution) • mix solutions to pH 8.2 • 0.05% TNBS • Dilute TNBS stock (5% solution) to 0.05% in MQ cover reagent tube with aluminium foil and store in dark place • 1% SDS solution • Leucine standard (stock 3 mM Leucine) • Dissolve Leucine in 1% SDS solution. Dilute the stock solution 20×, 10×, 4× en 2× with 1% SDS for analysis • Blank • Dilute non-hydrolysed sample in 1% SDS to a protein concentration of 0.5 mg/ml • Samples • Dilute hydrolysed protein in 1% SDS to a concentration of 0.5 mg/ml in duplo Analysis: • Pipet 15 μl sample (Leucine standard or sample) in microwell. Measure each dilution in twofold in plate (Costar, non-binding plate) • Add 45 μl 0.21 M sodium phosphate buffer pH 8.2 • Add 45 μl 0.05% TNBS. Cover plate with aluminium foil. Incubate plate for 60 minutes in a 50° C. stove. • After incubation add 90 μl 0.1 N HCl • Measure absorption at 340 nm (microplate reader) Calculation of degree of hydrolysis (DH): • Make calibration line of Leucine standard. This calibration line is used to convert absorption values of samples to NH2-equivalents.

B1: OT-UM: ovotransferrin, not pre-hydrolysed, nor in vitro digested (protein)
chain: APPKSVIRWCTISSPEEKKCNNLRDLTQQERISLTCVQKATYLDCIKAIANNEADAISLDGGQAFEAGLAPYKLKPIAAEVYEHTEGSTTSYYAVAVVKKGTEFTVNDLQGKTSCHTGLGRSAGWNIPIGTLLHRGAIEWEGIESGSVEQAVAKFFSASCVPGATIEQKLCRQCKGDPKTKCARNAPYSGYSGAFHCLKDGKGDVAFVKHTTVNENAPDQKDEYELLCLDGSRQPVDNYKTCNWARVAAHAVVARDDNKVEDIWSFLSKAQSDFGVDTKSDFHLFGPPGKKDPVLKDLLFKDSAIMLKRVPSLMDSQLYLGFEYYSAIQSMRKDQLTPSPRENRIQWCAVGKDEKSKCDRWSVVSNGDVECTVVDETKDCIIKIMKGEADAVALDGGLVYTAGVCGLVPVMAERYDDESQCSKTDERPASYFAVAVARKDSNVNWNNLKGKKSCHTAVGRTAGWVIPMGLIHNRTGTCNFDEYFSEGCAPGSPPNSRLCQLCQGSGGIPPEKCVASSHEKYFGYTGALRCLVEKGDVAFIQHSTVEENTGGKNKADWAKNLQMDDFELLCTDGRRANVMDYRECNLAEVPTHAVVVRPEKANKIRDLLERQEKRFGVNGSEKSKFMMFESQNKDLLFKDLTKCLFKVREGTTYKEFLGDKFYTVISSLKTCNPSDILQMCSFLEGK
As to B1, the ACE inhibition by setting is: (conc. 0.019 mg/ml) 0.7; (conc. 0.056 mg/ml) −4.1; (conc. 0.167 mg/ml) 0.7; (conc. 0.500 mg/ml) −0.3.
